For 72 molecules, Binding affinity and Binding affinity (RU) results are on record in US20250011363A1, “OPTIMIZED SHORTENED PEPTIDE THAT BINDS TO ACETYLCHOLINE RECEPTOR, AND USE THEREOF” (SKINMED CO., LTD., priority 2021, published 2025).

In experiment [1] the target is acetylcholine receptor. The experiment is described as follows: SPR, peptide at 10 uM. A general note: Surface plasmon resonance follows binding to a sensor surface in real time, without labels.
The target of experiment [2] is acetylcholine receptor. The experiment is described as follows: SPR, peptide at 10 uM on acetylcholine receptor.

In the case of KMTERK [6mer-2-1195], the Binding affinity with acetylcholine receptor [1] was 25 RU.
Same read-out and setting: under KEKFRR [6mer-2-1186] stands 27 RU; under KACWKR [6mer-2-1181], 32 RU.
As for KTWEK [5mer-665], in the experiment with acetylcholine receptor [2], the Binding affinity (RU) is 26 RU.
Turning to KPTWK [5mer-956], in the experiment with acetylcholine receptor [2], the Binding affinity (RU) was 19 RU.
For the molecule RCNMK [5mer-661], the Binding affinity (RU) with acetylcholine receptor [2] came to 30 RU.
KEWNR [5mer-654] gave a Binding affinity (RU) with acetylcholine receptor [2] of 27 RU.
For the molecule KACIRR [6mer-2-1190], the Binding affinity with acetylcholine receptor [1] came to 32 RU.
Turning to RAPARR [6mer-2-1188], the Binding affinity with acetylcholine receptor [1] came to 22 RU.
In turn, KKWGR [5mer-658] yielded a Binding affinity (RU) with acetylcholine receptor [2] of 31 RU.
RHNDKR [6mer-2-1182]: the Binding affinity with acetylcholine receptor [1] came out at 30 RU.
Regarding RPSAK [5mer-966], the Binding affinity (RU) with acetylcholine receptor [2] worked out at 32 RU.
As for RPEDK [5mer-650], the Binding affinity (RU) with acetylcholine receptor [2] was determined as 22 RU.
Same read-out and setting: the result for KFDVK [5mer-660] reads 11 RU; that for KYTDR [5mer-964], 22 RU; that for KMEIR [5mer-965], 30 RU.
Turning to RIDAKK [6mer-2-1185], the Binding affinity with acetylcholine receptor [1] was 42 RU.
The molecule KIEEK [5mer-662] had a Binding affinity (RU) with acetylcholine receptor [2] of 28 RU.
The same measure, in the same setting: under KIHEK [5mer-659] stands 22 RU; under KMKMK [5mer-949], 26 RU.
The molecule KHAPK [5mer-672] gave a Binding affinity (RU) with acetylcholine receptor [2] of 12 RU.
The molecule RISPR [5mer-673] showed a Binding affinity (RU) in the experiment with acetylcholine receptor [2] of 14 RU.
The molecule RFTVR [5mer-651] had a Binding affinity (RU) with acetylcholine receptor [2] of 11 RU.
For the molecule RMSHRR [6mer-2-1198], in the experiment with acetylcholine receptor [1], the Binding affinity turned out to be 27 RU.
In turn, KTTVRK [6mer-2-1178] displayed a Binding affinity in the experiment with acetylcholine receptor [1] of 30 RU.
Molecule KKADRK [6mer-2-1191] yielded a Binding affinity with acetylcholine receptor [1] of 35 RU.
In the case of RNTVR [5mer-969], the Binding affinity (RU) with acetylcholine receptor [2] was determined as 27 RU.
As to RIPHR [5mer-968], the Binding affinity (RU) with acetylcholine receptor [2] came to 11 RU.
For RTADRK [6mer-2-1187], the Binding affinity in the experiment with acetylcholine receptor [1] was 36 RU.
As to KDNDR [5mer-657], in the experiment with acetylcholine receptor [2], the Binding affinity (RU) was found to be 22 RU.
On the same count and under the same terms, the result for KNADK [5mer-955] reads 14 RU.
For KTAPKK [6mer-2-1189], the Binding affinity in the experiment with acetylcholine receptor [1] amounted to 40 RU.
RYSFK [5mer-649] yielded a Binding affinity (RU) in the experiment with acetylcholine receptor [2] of 20 RU.
RKCIR [5mer-655]: the Binding affinity (RU) with acetylcholine receptor [2] was found to be 15 RU.
In the experiment with acetylcholine receptor [2], KPNMK [5mer-959] came in with a Binding affinity (RU) of 29 RU.
Take RYTEKK [6mer-2-1176]: the Binding affinity with acetylcholine receptor [1] was 43 RU.
As for KYMNR [5mer-970], the Binding affinity (RU) with acetylcholine receptor [2] came out at 33 RU.
With RDCER [5mer-957], the Binding affinity (RU) in the experiment with acetylcholine receptor [2] was determined as 30 RU.
KACVKK [6mer-2-1179] gave a Binding affinity in the experiment with acetylcholine receptor [1] of 34 RU.
In the experiment with acetylcholine receptor [2], RATPR [5mer-663] had a Binding affinity (RU) of 31 RU.
In the case of KKTHK [5mer-967], the Binding affinity (RU) with acetylcholine receptor [2] stood at 26 RU.
Molecule KTMHK [5mer-952] came in with a Binding affinity (RU) with acetylcholine receptor [2] of 12 RU.
As to KIANR [5mer-961], the Binding affinity (RU) with acetylcholine receptor [2] was determined as 32 RU.
Take KYAKR [5mer-972]: in the experiment with acetylcholine receptor [2], the Binding affinity (RU) worked out at 14 RU.
Turning to KMNAK [5mer-671], the Binding affinity (RU) in the experiment with acetylcholine receptor [2] came to 21 RU.
Consider KPTWR [5mer-664], for which the Binding affinity (RU) with acetylcholine receptor [2] stood at 17 RU.
Consider KFWVRR [6mer-2-1184], for which the Binding affinity with acetylcholine receptor [1] is 22 RU.
KMTGK [5mer-971] came in with a Binding affinity (RU) in the experiment with acetylcholine receptor [2] of 12 RU.
In the experiment with acetylcholine receptor [2], KPCVK [5mer-670] displayed a Binding affinity (RU) of 23 RU.
RENNRK [6mer-2-1183]: the Binding affinity in the experiment with acetylcholine receptor [1] was determined as 35 RU.
Consider KYCDRK [6mer-2-1194], for which, in the experiment with acetylcholine receptor [1], the Binding affinity was found to be 35 RU.
In the case of RESKKR [6mer-2-1196], in the experiment with acetylcholine receptor [1], the Binding affinity was found to be 39 RU.
The molecule RAPNK [5mer-963] gave a Binding affinity (RU) with acetylcholine receptor [2] of 24 RU.
Still for that read-out and setting: the result for KATGR [5mer-656] reads 13 RU.
Molecule RCAAR [5mer-652] gave a Binding affinity (RU) with acetylcholine receptor [2] of 23 RU.
In the experiment with acetylcholine receptor [2], KTTWK [5mer-653] returned a Binding affinity (RU) of 16 RU.
In turn, RNPGK [5mer-960] displayed a Binding affinity (RU) with acetylcholine receptor [2] of 14 RU.
On to RNPER [5mer-669], for which the Binding affinity (RU) in the experiment with acetylcholine receptor [2] is 24 RU.
Molecule RHDWR [5mer-666] yielded a Binding affinity (RU) with acetylcholine receptor [2] of 18 RU.
In the experiment with acetylcholine receptor [2], RKMAR [5mer-953] gave a Binding affinity (RU) of 23 RU.
RKWKR [5mer-958] gave a Binding affinity (RU) with acetylcholine receptor [2] of 11 RU.
KDADR [5mer-950] yielded a Binding affinity (RU) in the experiment with acetylcholine receptor [2] of 22 RU.
Regarding KHKNKR [6mer-2-1192], the Binding affinity with acetylcholine receptor [1] is 40 RU.
With KNCIKK [6mer-2-1197], the Binding affinity with acetylcholine receptor [1] amounted to 23 RU.
Same read-out and setting: under RASEKR [6mer-2-1177] stands 41 RU.
In the experiment with acetylcholine receptor [2], RDCHR [5mer-667] returned a Binding affinity (RU) of 16 RU.
On to KTEVK [5mer-954], for which, in the experiment with acetylcholine receptor [2], the Binding affinity (RU) was 23 RU.
RIWKR [5mer-962]: the Binding affinity (RU) with acetylcholine receptor [2] came out at 23 RU.
RAANRR [6mer-2-1180] came in with a Binding affinity in the experiment with acetylcholine receptor [1] of 34 RU.
As to RYMGR [5mer-951], the Binding affinity (RU) with acetylcholine receptor [2] worked out at 18 RU.
The molecule RPHAK [5mer-668] had a Binding affinity (RU) with acetylcholine receptor [2] of 27 RU.
Take REKIRR [6mer-2-1193]: the Binding affinity in the experiment with acetylcholine receptor [1] amounted to 43 RU.
